Tests used:
[1] = target: T1, FcγRIIb extracellular domain with C-terminal His tag (human, UniProt P31994 43-217); experiment: ratio of SPR KDs vs IL6R-B3/IL6R-L
T1 sequence (looked up): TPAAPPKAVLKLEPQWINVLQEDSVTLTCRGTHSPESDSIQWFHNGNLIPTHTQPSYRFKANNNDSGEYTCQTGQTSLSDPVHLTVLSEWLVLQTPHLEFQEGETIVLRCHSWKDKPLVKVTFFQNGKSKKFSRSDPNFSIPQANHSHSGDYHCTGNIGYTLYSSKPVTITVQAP

[2] = target: T2, FcγRIIa type R extracellular domain with C-terminal His tag (human, UniProt P12318 34-217); experiment: ratio of SPR KDs vs IL6R-B3/IL6R-L
T2 sequence (looked up): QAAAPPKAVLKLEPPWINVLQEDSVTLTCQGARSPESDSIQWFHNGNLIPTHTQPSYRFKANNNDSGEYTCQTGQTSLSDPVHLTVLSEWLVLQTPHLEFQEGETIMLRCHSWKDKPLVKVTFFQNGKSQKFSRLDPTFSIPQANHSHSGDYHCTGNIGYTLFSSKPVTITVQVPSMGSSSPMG

[3] = target: T1, FcγRIIb extracellular domain with …; experiment: ratio of SPR KDs, FcγRIIaH over FcγRIIb, same variant
[4] = target: human FcγRIIIa type V (Val158) extracellular domain with C-terminal His tag (human, UniProt P08637 17-208); experiment: SPR
[5] = target: T3, human FcγRIIa type R (Arg131) extracellular domain with C-terminal His tag (human, UniProt P12318 34-217); experiment: SPR
T3 sequence (looked up): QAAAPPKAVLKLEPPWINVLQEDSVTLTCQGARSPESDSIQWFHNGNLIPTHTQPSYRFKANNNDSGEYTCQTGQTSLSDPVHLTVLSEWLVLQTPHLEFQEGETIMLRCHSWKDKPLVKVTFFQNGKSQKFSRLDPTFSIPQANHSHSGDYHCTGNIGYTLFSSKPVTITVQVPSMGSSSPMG

[6] = target: T4, human FcγRIIb extracellular domain with C-terminal His tag (human, UniProt P31994 43-217); experiment: SPR
T4 sequence (looked up): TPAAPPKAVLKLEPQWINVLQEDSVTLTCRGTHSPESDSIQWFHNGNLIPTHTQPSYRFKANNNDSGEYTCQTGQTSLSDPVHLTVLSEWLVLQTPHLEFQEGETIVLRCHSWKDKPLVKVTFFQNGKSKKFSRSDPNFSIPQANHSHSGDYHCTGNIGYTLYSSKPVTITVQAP

[7] = target: T1, FcγRIIb extracellular domain with …; experiment: ratio of SPR KDs, FcγRIIaR over FcγRIIb, same variant

human FcγRIIIa type V (Val158) extracellular domain with C-terminal His tag, sequence (P08637 17-208 F176V): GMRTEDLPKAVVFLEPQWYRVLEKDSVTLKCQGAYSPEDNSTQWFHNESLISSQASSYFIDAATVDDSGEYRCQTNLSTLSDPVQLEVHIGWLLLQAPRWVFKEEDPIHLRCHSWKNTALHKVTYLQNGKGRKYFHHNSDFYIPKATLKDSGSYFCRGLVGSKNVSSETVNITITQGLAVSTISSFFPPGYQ

| Binder | KD (IIb) of parent polypeptide/KD (IIb) of altered polypeptide [1] | KD (IIaR) of parent polypeptide/KD (IIaR) of altered polypeptide [2] | KD (IIaH)/KD (IIb) [3] | Kd [4] [µM] | KD (IIaR) of parent polypeptide/KD (IIaR) of altered polypeptide [5] | KD (IIb) of parent polypeptide/KD (IIb) of altered polypeptide [6] | KD (IIaR)/KD (IIb) [7] |
| --- | --- | --- | --- | --- | --- | --- | --- |
| IL6R-BP487/IL6R-L (antibody, human IgG1, kappa) heavy: QVQLQESGPGLVKPSETLSLTCAVSGHSISHDHAWSWVRQPPGEGLEWIGFISYSGITNYNPSLQGRVTISRDNSKNTLYLQMNSLRAEDTAVYYCARSLARTTAMDYWGEGTLVTVSSASTKGPSVFPLAPSSKSTSGGTAALGCLVKDYFPEPVTVSWNSGALTSGVHTFPAVLQSSGLYSLSSVVTVPSSSLGTQTYICNVNHKPSNTKVDKKVEPKSCDKTHTCPPCPAPDLLGDDSVFLFPPKPKDTLMISRTPEVTCVVIDVAEEDGEVKFNWYVDGVEVHNAKTKPREEQYNSTYRVVSVLTVLHQDWLNGKEYKCKVSNKALPRPIEKTISKAKGQPREPQVYTLPPSRDELTKNQVSLTCLVKGFYPSDIAVEWESNGQPENNYKTTPMVLDSDGSFFLYSKLTVDKSRWQQGNVFSCSVMHEALHNHYTQESLSLSP light: not shown | 2700 | 28.3 | 730 |  |  |  |  |
| IL6R-BP551/IL6R-L (antibody, human IgG1, kappa) heavy: QVQLQESGPGLVKPSETLSLTCAVSGHSISHDHAWSWVRQPPGEGLEWIGFISYSGITNYNPSLQGRVTISRDNSKNTLYLQMNSLRAEDTAVYYCARSLARTTAMDYWGEGTLVTVSSASTKGPSVFPLAPSSKSTSGGTAALGCLVKDYFPEPVTVSWNSGALTSGVHTFPAVLQSSGLYSLSSVVTVPSSSLGTQTYICNVNHKPSNTKVDKKVEPKSCDKTHTCPPCPAPELLGDDSVFLFPPKPKDTLMISRTPEVTCVVIDVSEEDGDVKFNWYVDGVEVHNAKTKPREEQDNSTYRVVSVLTVLHQDWLNGKEYKCKVSNKALPRPIEKTISKAKGQPREPQVYTLPPSRDELTKNQVSLTCLVKGFYPSDIAVEWESNGQPENNYKTTPPVLDSDGSFFLYSKLTVDKSRWQQGNVFSCSVMHEALHNHYTQESLSLSP light: not shown |  |  |  | 48 | 4.5 | 482 |  |
| IL6R-BP563/IL6R-L (antibody, human IgG1, kappa) heavy: QVQLQESGPGLVKPSETLSLTCAVSGHSISHDHAWSWVRQPPGEGLEWIGFISYSGITNYNPSLQGRVTISRDNSKNTLYLQMNSLRAEDTAVYYCARSLARTTAMDYWGEGTLVTVSSASTKGPSVFPLAPSSKSTSGGTAALGCLVKDYFPEPVTVSWNSGALTSGVHTFPAVLQSSGLYSLSSVVTVPSSSLGTQTYICNVNHKPSNTKVDKKVEPKSCDKTHTCPPCPAPDLLGDDSVFLFPPKPKDTLMISRTPEVTCVVVDVSEEDGDVKFNWYVDGVEVHNAKTKPREEQDNSTYRVVSVLTVLHQDWLNGKEYKCKVSNKALPRPIEKTISKAKGQPREPQVYTLPPSRDELTKNQVSLTCLVKGFYPSDIAVEWESNGQPENNYKTTPPVLDSDGSFFLYSKLTVDKSRWQQGNVFSCSVMHEALHNHYTQESLSLSP light: not shown |  |  |  | 38 | 2.4 | 196 |  |
| IL6R-BP540/IL6R-L (antibody, human IgG1, kappa) heavy: QVQLQESGPGLVKPSETLSLTCAVSGHSISHDHAWSWVRQPPGEGLEWIGFISYSGITNYNPSLQGRVTISRDNSKNTLYLQMNSLRAEDTAVYYCARSLARTTAMDYWGEGTLVTVSSASTKGPSVFPLAPSSKSTSGGTAALGCLVKDYFPEPVTVSWNSGALTSGVHTFPAVLQSSGLYSLSSVVTVPSSSLGTQTYICNVNHKPSNTKVDKKVEPKSCDKTHTCPPCPAPELLGDDSVFLFPPKPKDTLMISRTPEVTCVVIDVSEEDGPVKFNWYVDGVEVHNAKTKPREEQDNSTYRVVSVLTVLHQDWLNGKEYKCKVSNKALPRPIEKTISKAKGQPREPQVYTLPPSRDELTKNQVSLTCLVKGFYPSDIAVEWESNGQPENNYKTTPPVLDSDGSFFLYSKLTVDKSRWQQGNVFSCSVMHEALHNHYTQESLSLSP light: not shown |  |  |  | 39 | 5.2 | 541 |  |
| IL6R-BP489/IL6R-L (antibody, human IgG1, kappa) heavy: QVQLQESGPGLVKPSETLSLTCAVSGHSISHDHAWSWVRQPPGEGLEWIGFISYSGITNYNPSLQGRVTISRDNSKNTLYLQMNSLRAEDTAVYYCARSLARTTAMDYWGEGTLVTVSSASTKGPSVFPLAPSSKSTSGGTAALGCLVKDYFPEPVTVSWNSGALTSGVHTFPAVLQSSGLYSLSSVVTVPSSSLGTQTYICNVNHKPSNTKVDKKVEPKSCDKTHTCPPCPAPDLLGDDSVFLFPPKPKDTLMISRTPEVTCVVIDVAEEDGEVKFNWYVDGVEVHNAKTKPREEQDNSTYRVVSVLTVLHQDWLNGKEYKCKVSNKALPRPIEKTISKAKGQPREPQVYTLPPSRDELTKNQVSLTCLVKGFYPSDIAVEWESNGQPENNYKTTPMVLDSDGSFFLYSKLTVDKSRWQQGNVFSCSVMHEALHNHYTQESLSLSP light: not shown | 3100 | 25.7 | 870 |  |  |  |  |
| IL6R-BP491/IL6R-L (antibody, human IgG1, kappa) heavy: QVQLQESGPGLVKPSETLSLTCAVSGHSISHDHAWSWVRQPPGEGLEWIGFISYSGITNYNPSLQGRVTISRDNSKNTLYLQMNSLRAEDTAVYYCARSLARTTAMDYWGEGTLVTVSSASTKGPSVFPLAPSSKSTSGGTAALGCLVKDYFPEPVTVSWNSGALTSGVHTFPAVLQSSGLYSLSSVVTVPSSSLGTQTYICNVNHKPSNTKVDKKVEPKSCDKTHTCPPCPAPELLGDDSVFLFPPKPKDTLMISRTPEVTCVVIDVAEEDGEVKFNWYVDGVEVHNAKTKPREEQDNSTYRVVSVLTVLHQDWLNGKEYKCKVSNKALPRPIEKTISKAKGQPREPQVYTLPPSRDELTKNQVSLTCLVKGFYPSDIAVEWESNGQPENNYKTTPPVLDSDGSFFLYSKLTVDKSRWQQGNVFSCSVMHEALHNHYTQESLSLSP light: not shown |  | 9.3 | 724 |  |  |  | 38.8 |
| IL6R-BP494/IL6R-L (antibody, human IgG1, kappa) heavy: QVQLQESGPGLVKPSETLSLTCAVSGHSISHDHAWSWVRQPPGEGLEWIGFISYSGITNYNPSLQGRVTISRDNSKNTLYLQMNSLRAEDTAVYYCARSLARTTAMDYWGEGTLVTVSSASTKGPSVFPLAPSSKSTSGGTAALGCLVKDYFPEPVTVSWNSGALTSGVHTFPAVLQSSGLYSLSSVVTVPSSSLGTQTYICNVNHKPSNTKVDKKVEPKSCDKTHTCPPCPAPELLGDDSVFLFPPKPKDTLMISRTPEVTCVVVDVAEEDGEVKFNWYVDGVEVHNAKTKPREEQDNSTYRVVSVLTVLHQDWLNGKEYKCKVSNKALPRPIEKTISKAKGQPREPQVYTLPPSRDELTKNQVSLTCLVKGFYPSDIAVEWESNGQPENNYKTTPPVLDSDGSFFLYSKLTVDKSRWQQGNVFSCSVMHEALHNHYTQESLSLSP light: not shown | 471 | 4.3 | 821 |  |  |  |  |
| IL6R-BP492/IL6R-L (antibody, human IgG1, kappa) heavy: QVQLQESGPGLVKPSETLSLTCAVSGHSISHDHAWSWVRQPPGEGLEWIGFISYSGITNYNPSLQGRVTISRDNSKNTLYLQMNSLRAEDTAVYYCARSLARTTAMDYWGEGTLVTVSSASTKGPSVFPLAPSSKSTSGGTAALGCLVKDYFPEPVTVSWNSGALTSGVHTFPAVLQSSGLYSLSSVVTVPSSSLGTQTYICNVNHKPSNTKVDKKVEPKSCDKTHTCPPCPAPELLGGDSVFLFPPKPKDTLMISRTPEVTCVVIDVAEEDGEVKFNWYVDGVEVHNAKTKPREEQYNSTYRVVSVLTVLHQDWLNGKEYKCKVSNKALPAPIEKTISKAKGQPREPQVYTLPPSRDELTKNQVSLTCLVKGFYPSDIAVEWESNGQPENNYKTTPPVLDSDGSFFLYSKLTVDKSRWQQGNVFSCSVMHEALHNHYTQESLSLSP light: not shown | 131 | 1.2 |  |  |  |  |  |
| IL6R-BP565/IL6R-L (antibody, human IgG1, kappa) heavy: QVQLQESGPGLVKPSETLSLTCAVSGHSISHDHAWSWVRQPPGEGLEWIGFISYSGITNYNPSLQGRVTISRDNSKNTLYLQMNSLRAEDTAVYYCARSLARTTAMDYWGEGTLVTVSSASTKGPSVFPLAPSSKSTSGGTAALGCLVKDYFPEPVTVSWNSGALTSGVHTFPAVLQSSGLYSLSSVVTVPSSSLGTQTYICNVNHKPSNTKVDKKVEPKSCDKTHTCPPCPAPDLLGDDSVFLFPPKPKDTLMISRTPEVTCVVVDVAEEDGEVKFNWYVDGVEVHNAKTKPREEQDNSTYRVVSVLTVLHQDWLNGKEYKCKVSNKALPRPIEKTISKAKGQPREPQVYTLPPSRDELTKNQVSLTCLVKGFYPSDIAVEWESNGQPENNYKTTPPVLDSDGSFFLYSKLTVDKSRWQQGNVFSCSVMHEALHNHYTQESLSLSP light: not shown |  |  |  | 21 | 4.8 | 565 |  |

— patent US20260217793A1 (Chugai, published 2026)
